Article PMC3436581

Molecular target: Cu^2+-catalyzed oxidized PrP(23–231) (mild condition) (mouse) (UniProt P04925)
Assay: SEC

Q: Which percent of total protein in the tetramer band does the source give for “Cu^2+-catalyzed oxidized PrP(23–231) (mild condition) (from UniProt P04925 23-231) (natural protein)” here?
A: < 5%

Q: And the stoichiometry N?
A: 4
